Experimental data taken from paper PMC9482650, “Quantitative fragmentomics allow affinity mapping of interactomes” (Nature Communications, 2022).

T1: SYNPO2L, Q9H987
T1 sequence (Q9H987 1-98, limits assumed, looked up): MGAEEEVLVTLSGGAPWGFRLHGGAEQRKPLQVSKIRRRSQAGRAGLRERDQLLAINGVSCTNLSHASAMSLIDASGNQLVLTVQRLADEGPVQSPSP

T2: PDLIM3, Q53GG5
T2 sequence (Q53GG5 1-94, limits assumed, looked up): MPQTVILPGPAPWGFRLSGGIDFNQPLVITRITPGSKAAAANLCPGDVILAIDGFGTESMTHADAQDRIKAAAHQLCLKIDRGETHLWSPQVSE

T3: MPP1, Q00013
T3 sequence (Q00013 66-162, limits assumed, looked up): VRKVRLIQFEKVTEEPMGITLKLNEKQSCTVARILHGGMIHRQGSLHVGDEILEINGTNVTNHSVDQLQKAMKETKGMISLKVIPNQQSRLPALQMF

T4: GRIP1_1, Q9Y3R0
T4 sequence (Q9Y3R0 48-146, limits assumed, looked up): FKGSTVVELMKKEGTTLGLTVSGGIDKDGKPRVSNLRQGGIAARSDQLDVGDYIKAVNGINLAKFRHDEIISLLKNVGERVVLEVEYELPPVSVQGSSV

T5: TJP3_1, O95049
T5 sequence (O95049 6-103, limits assumed, looked up): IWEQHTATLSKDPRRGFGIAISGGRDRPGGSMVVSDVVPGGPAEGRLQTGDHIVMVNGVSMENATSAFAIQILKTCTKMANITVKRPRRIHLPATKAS

T6: GIPC1, O14908
T6 sequence (O14908 128-223, limits assumed, looked up): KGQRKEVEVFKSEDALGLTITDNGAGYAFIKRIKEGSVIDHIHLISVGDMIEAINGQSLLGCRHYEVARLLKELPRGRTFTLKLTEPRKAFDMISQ

T7: MLLT4, P55196
T7 sequence (P55196 1002-1103, limits assumed, looked up): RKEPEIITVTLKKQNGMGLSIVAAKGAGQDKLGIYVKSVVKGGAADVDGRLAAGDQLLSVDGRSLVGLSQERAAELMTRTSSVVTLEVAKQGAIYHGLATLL

T8: NHERF1_1, O14745
T8 sequence (O14745 9-104, limits assumed, looked up): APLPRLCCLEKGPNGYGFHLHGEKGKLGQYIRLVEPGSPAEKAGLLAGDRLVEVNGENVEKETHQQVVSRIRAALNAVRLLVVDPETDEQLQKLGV

T9: MPDZ_2, O75970
T9 sequence (O75970 252-347, limits assumed, looked up): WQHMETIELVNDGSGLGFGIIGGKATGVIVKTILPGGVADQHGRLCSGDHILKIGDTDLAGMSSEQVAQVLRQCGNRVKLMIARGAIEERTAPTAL

T10: MPDZ_7, O75970
T10 sequence (O75970 1146-1253, limits assumed, looked up): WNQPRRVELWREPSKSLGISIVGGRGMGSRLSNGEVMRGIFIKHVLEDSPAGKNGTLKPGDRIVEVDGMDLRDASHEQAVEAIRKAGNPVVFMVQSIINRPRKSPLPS

T11: SHROOM2, Q13796
T11 sequence (Q13796 21-118, limits assumed, looked up): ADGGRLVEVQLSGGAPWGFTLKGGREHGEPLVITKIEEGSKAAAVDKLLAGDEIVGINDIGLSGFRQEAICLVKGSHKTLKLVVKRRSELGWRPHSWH

T12: MAGI2_1, Q86UL8
T12 sequence (Q86UL8 12-111, limits assumed, looked up): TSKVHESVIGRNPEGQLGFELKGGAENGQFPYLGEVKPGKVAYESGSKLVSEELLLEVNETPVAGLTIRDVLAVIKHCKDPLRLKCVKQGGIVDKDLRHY


target: Q9P227; experiment: holdup assay; parameters: key: below the threshold = too weak to quantify, mostly under pKd 3.1 to 4; settings: plain residues with an end cap or a label only (N-terminal biotin on a linker: ttds)

Row | Binder | pKd
1 | IQREDQETAV [DGKZ, Q13574] | below the threshold
2 | CLDTSRETDL [KCNA5, P22460] | below the threshold

target: Q96JB8; experiment: holdup assay; parameters: key: below the threshold = too weak to quantify, mostly under pKd 3.1 to 4; settings: plain residues with an end cap or a label only (N-terminal biotin on a linker: ttds)

Row | Binder | pKd
3 | IQREDQETAV [DGKZ, Q13574] | below the threshold
4 | CLDTSRETDL [KCNA5, P22460] | below the threshold

target: Q13368; experiment: holdup assay; parameters: key: below the threshold = too weak to quantify, mostly under pKd 3.1 to 4; settings: plain residues with an end cap or a label only (N-terminal biotin on a linker: ttds)

Row | Binder | pKd
5 | IQREDQETAV [DGKZ, Q13574] | below the threshold
6 | CLDTSRETDL [KCNA5, P22460] | below the threshold

target: T1, SYNPO2L, Q9H987; experiment: holdup assay; parameters: key: below the threshold = too weak to quantify, mostly under pKd 3.1 to 4; settings: plain residues with an end cap or a label only (N-terminal biotin on a linker: ttds)

Row | Binder | pKd
7 | IQREDQETAV [DGKZ, Q13574] | below the threshold
8 | CLDTSRETDL [KCNA5, P22460] | below the threshold

target: T2, PDLIM3, Q53GG5; experiment: holdup assay; parameters: key: below the threshold = too weak to quantify, mostly under pKd 3.1 to 4; settings: plain residues with an end cap or a label only (N-terminal biotin on a linker: ttds)

Row | Binder | pKd
9 | IQREDQETAV [DGKZ, Q13574] | below the threshold
10 | CLDTSRETDL [KCNA5, P22460] | below the threshold

target: Q9UDY2; experiment: holdup assay; parameters: key: below the threshold = too weak to quantify, mostly under pKd 3.1 to 4; settings: plain residues with an end cap or a label only (N-terminal biotin on a linker: ttds)

Row | Binder | pKd
11 | IQREDQETAV [DGKZ, Q13574] | below the threshold
12 | CLDTSRETDL [KCNA5, P22460] | below the threshold

target: T3, MPP1, Q00013; experiment: holdup assay; parameters: key: below the threshold = too weak to quantify, mostly under pKd 3.1 to 4; settings: plain residues with an end cap or a label only (N-terminal biotin on a linker: ttds)

Row | Binder | pKd
13 | IQREDQETAV [DGKZ, Q13574] | below the threshold
14 | CLDTSRETDL [KCNA5, P22460] | below the threshold

target: Q9NR12; experiment: holdup assay; parameters: key: below the threshold = too weak to quantify, mostly under pKd 3.1 to 4; settings: plain residues with an end cap or a label only (N-terminal biotin on a linker: ttds)

Row | Binder | pKd
15 | IQREDQETAV [DGKZ, Q13574] | below the threshold
16 | CLDTSRETDL [KCNA5, P22460] | below the threshold

target: Q6ZWJ1; experiment: holdup assay; parameters: key: below the threshold = too weak to quantify, mostly under pKd 3.1 to 4; settings: plain residues with an end cap or a label only (N-terminal biotin on a linker: ttds)

Row | Binder | pKd
17 | IQREDQETAV [DGKZ, Q13574] | below the threshold
18 | CLDTSRETDL [KCNA5, P22460] | below the threshold

target: Q5TCQ9; experiment: holdup assay; parameters: key: below the threshold = too weak to quantify, mostly under pKd 3.1 to 4; settings: plain residues with an end cap or a label only (N-terminal biotin on a linker: ttds)

Row | Binder | pKd
19 | IQREDQETAV [DGKZ, Q13574] | below the threshold
20 | CLDTSRETDL [KCNA5, P22460] | below the threshold

target: T4, GRIP1_1, Q9Y3R0; experiment: holdup assay; parameters: key: below the threshold = too weak to quantify, mostly under pKd 3.1 to 4; settings: plain residues with an end cap or a label only (N-terminal biotin on a linker: ttds)

Row | Binder | pKd
21 | IQREDQETAV [DGKZ, Q13574] | below the threshold
22 | CLDTSRETDL [KCNA5, P22460] | below the threshold

target: O15021; experiment: holdup assay; parameters: key: below the threshold = too weak to quantify, mostly under pKd 3.1 to 4; settings: plain residues with an end cap or a label only (N-terminal biotin on a linker: ttds)

Row | Binder | pKd
23 | IQREDQETAV [DGKZ, Q13574] | below the threshold
24 | CLDTSRETDL [KCNA5, P22460] | below the threshold

target: T5, TJP3_1, O95049; experiment: holdup assay; parameters: key: below the threshold = too weak to quantify, mostly under pKd 3.1 to 4; settings: plain residues with an end cap or a label only (N-terminal biotin on a linker: ttds)

Row | Binder | pKd
25 | IQREDQETAV [DGKZ, Q13574] | below the threshold
26 | CLDTSRETDL [KCNA5, P22460] | below the threshold

target: Q96HC4; experiment: holdup assay; parameters: key: below the threshold = too weak to quantify, mostly under pKd 3.1 to 4; settings: plain residues with an end cap or a label only (N-terminal biotin on a linker: ttds)

Row | Binder | pKd
27 | IQREDQETAV [DGKZ, Q13574] | below the threshold
28 | CLDTSRETDL [KCNA5, P22460] | below the threshold

target: O43166; experiment: holdup assay; parameters: key: below the threshold = too weak to quantify, mostly under pKd 3.1 to 4; settings: plain residues with an end cap or a label only (N-terminal biotin on a linker: ttds)

Row | Binder | pKd
29 | IQREDQETAV [DGKZ, Q13574] | below the threshold
30 | CLDTSRETDL [KCNA5, P22460] | below the threshold

target: T6, GIPC1, O14908; experiment: holdup assay; parameters: key: below the threshold = too weak to quantify, mostly under pKd 3.1 to 4; settings: plain residues with an end cap or a label only (N-terminal biotin on a linker: ttds)

Row | Binder | pKd
31 | IQREDQETAV [DGKZ, Q13574] | 4.92
32 | CLDTSRETDL [KCNA5, P22460] | below the threshold

target: Q9C0E4; experiment: holdup assay; parameters: key: below the threshold = too weak to quantify, mostly under pKd 3.1 to 4; settings: plain residues with an end cap or a label only (N-terminal biotin on a linker: ttds)

Row | Binder | pKd
33 | IQREDQETAV [DGKZ, Q13574] | below the threshold
34 | CLDTSRETDL [KCNA5, P22460] | below the threshold

target: T7, MLLT4, P55196; experiment: holdup assay; parameters: key: below the threshold = too weak to quantify, mostly under pKd 3.1 to 4; settings: plain residues with an end cap or a label only (N-terminal biotin on a linker: ttds)

Row | Binder | pKd
35 | IQREDQETAV [DGKZ, Q13574] | below the threshold
36 | CLDTSRETDL [KCNA5, P22460] | below the threshold

target: Q96SB3; experiment: holdup assay; parameters: key: below the threshold = too weak to quantify, mostly under pKd 3.1 to 4; settings: plain residues with an end cap or a label only (N-terminal biotin on a linker: ttds)

Row | Binder | pKd
37 | IQREDQETAV [DGKZ, Q13574] | below the threshold
38 | CLDTSRETDL [KCNA5, P22460] | below the threshold

target: T8, NHERF1_1, O14745; experiment: holdup assay; parameters: key: below the threshold = too weak to quantify, mostly under pKd 3.1 to 4; settings: plain residues with an end cap or a label only (N-terminal biotin on a linker: ttds)

Row | Binder | pKd
39 | IQREDQETAV [DGKZ, Q13574] | below the threshold
40 | CLDTSRETDL [KCNA5, P22460] | below the threshold

target: T9, MPDZ_2, O75970; experiment: holdup assay; parameters: key: below the threshold = too weak to quantify, mostly under pKd 3.1 to 4; settings: plain residues with an end cap or a label only (N-terminal biotin on a linker: ttds)

Row | Binder | pKd
41 | IQREDQETAV [DGKZ, Q13574] | below the threshold
42 | CLDTSRETDL [KCNA5, P22460] | below the threshold

target: Q9H190; experiment: holdup assay; parameters: key: below the threshold = too weak to quantify, mostly under pKd 3.1 to 4; settings: plain residues with an end cap or a label only (N-terminal biotin on a linker: ttds)

Row | Binder | pKd
43 | IQREDQETAV [DGKZ, Q13574] | below the threshold
44 | CLDTSRETDL [KCNA5, P22460] | below the threshold

target: Q96JY6; experiment: holdup assay; parameters: key: below the threshold = too weak to quantify, mostly under pKd 3.1 to 4; settings: plain residues with an end cap or a label only (N-terminal biotin on a linker: ttds)

Row | Binder | pKd
45 | IQREDQETAV [DGKZ, Q13574] | below the threshold
46 | CLDTSRETDL [KCNA5, P22460] | below the threshold

target: T10, MPDZ_7, O75970; experiment: holdup assay; parameters: key: below the threshold = too weak to quantify, mostly under pKd 3.1 to 4; settings: plain residues with an end cap or a label only (N-terminal biotin on a linker: ttds)

Row | Binder | pKd
47 | IQREDQETAV [DGKZ, Q13574] | below the threshold
48 | CLDTSRETDL [KCNA5, P22460] | below the threshold

target: LIMK1, P53667; experiment: holdup assay; parameters: key: below the threshold = too weak to quantify, mostly under pKd 3.1 to 4; settings: plain residues with an end cap or a label only (N-terminal biotin on a linker: ttds)
Sequence (P53667 155-268): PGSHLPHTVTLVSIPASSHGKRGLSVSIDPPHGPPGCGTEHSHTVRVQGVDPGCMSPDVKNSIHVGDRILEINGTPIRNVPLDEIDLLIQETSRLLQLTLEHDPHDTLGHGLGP

Row | Binder | pKd
49 | CLDTSRETDL [KCNA5, P22460] | 4.3

target: T11, SHROOM2, Q13796; experiment: holdup assay; parameters: key: below the threshold = too weak to quantify, mostly under pKd 3.1 to 4; settings: plain residues with an end cap or a label only (N-terminal biotin on a linker: ttds)

Row | Binder | pKd
50 | IQREDQETAV [DGKZ, Q13574] | below the threshold
51 | CLDTSRETDL [KCNA5, P22460] | 4.22

target: T12, MAGI2_1, Q86UL8; experiment: holdup assay; parameters: key: below the threshold = too weak to quantify, mostly under pKd 3.1 to 4; settings: plain residues with an end cap or a label only (N-terminal biotin on a linker: ttds)

Row | Binder | pKd
52 | IQREDQETAV [DGKZ, Q13574] | below the threshold
53 | CLDTSRETDL [KCNA5, P22460] | below the threshold
